Bridge positions count the residues as written; N and C are the ends. Ends that are not written are not given here.
Legend:
soluble human FcRn [1] = target: T1, soluble human FcRn (human, UniProt P55899 24-297; P61769 21-119, biotinylated (Sulfo-NHS-LC-Biotin) in the ELISA; amine-coupled to CM5 chip in SPR); experiment: SPR, pH 6
T1 construct: also called shFcRn; biotinylated shFcRn
Method: (§1) The following steps were performed to cross-link soluble human or cynomolgus FcRn to the dextran surface of a CM5 sensor chip (Biacore AB, Uppsala, Sweden) by an amine coupling reaction involving 1-ethyl-(3-dimethylaminopropyl)-carbodiimide hydrochloride (EDC) (Biacore AB, Uppsala, Sweden) and N-hydroxysuccinimide (NHS) (Biacore AB, Uppsala, Sweden) as recommended by Biacore (BIAapplications Handbook, version AB, section 4.2, Biacore AB, Uppsala, Sweden). […] Residual sites on the FcRn flow cell were blocked with 1 M ethanolamine hydrochloride pH 8.5 (Biacore AB, Uppsala, Sweden). A control flow cell was blocked with ethanolamine for reference subtraction. For analysis of the monomeric peptides, FcRn was coated to a final density of 4000-5000 response units (RU). For analysis of the peptide dimers, FcRn was coated to a density of 2000-2500 RU. All SPR measurements were performed using a BIACORE 3000 Instrument (Biacore AB Uppsala, Sweden). For measurements done at either pH 6 or pH 7.4, experiments were performed in 50 mM phosphate, 100 mM sodium chloride, 0.01% surfactant P20 (Biacore AB, Uppsala, Sweden).
(§2) Ten, 2-fold dilutions of the peptide were injected over the FcRn-CM5 chip at a rate of 20 μl/min for 2 min. The peptide was dissociated from the chip for 2.5 minutes with buffer. Any remaining peptide was removed from the chip with a 30 second injection of HBS-P buffer (Biacore AB, Uppsala, Sweden) at a rate of 30 μl/min. Sensorgrams were generated and analyzed using BiaEval software version 3.1 (Biacore AB, Uppsala, Sweden). The equilibrium RU observed for each injection was plotted against concentration. The equilibrium KD values were derived by analysis of the plots using the steady state affinity model included in the BiaEval software.

soluble human FcRn [2] = target: T1, soluble human FcRn; experiment: SPR, pH 7.4
Method: as §1, §2

soluble human FcRn [3] = target: T1, soluble human FcRn; experiment: SPR, pH 7.4; remark: listed apart in the source
Method: as §1, §2

soluble human FcRn [4] = target: T1, soluble human FcRn; experiment: SPR, pH 6; remark: listed apart in the source
Method: as §1, §2

soluble human FcRn [5] = target: T1, soluble human FcRn; experiment: SPR, pH 7.4; remark: listed apart in the source
Method: as §1, §2

soluble human FcRn [6] = target: T1, soluble human FcRn; experiment: SPR, pH 7.4; remark: listed apart in the source
Method: as §1, §2

soluble human FcRn [7] = target: T1, soluble human FcRn; experiment: SPR, pH 6; remark: listed apart in the source
Method: as §1, §2

soluble human FcRn [8] = target: T1, soluble human FcRn; experiment: SPR, pH 6; remark: listed apart in the source
Method: as §1, §2

soluble human FcRn [9] = target: T1, soluble human FcRn; experiment: SPR, pH 6; remark: listed apart in the source
Method: as §1, §2

soluble human FcRn [10] = target: T1, soluble human FcRn; experiment: SPR, pH 6; remark: listed apart in the source
Method: as §1, §2

soluble human FcRn [11] = target: T1, soluble human FcRn; experiment: SPR, pH 7.4; remark: listed apart in the source
Method: as §1, §2

soluble human FcRn [12] = target: T1, soluble human FcRn; experiment: SPR, pH 6; remark: listed apart in the source
Method: as §1, §2

soluble human FcRn [13] = target: T1, soluble human FcRn; experiment: SPR, pH 7.4; remark: listed apart in the source
Method: as §1
(§3) Ten, 2-fold dilutions of the peptide were injected over the FcRn-CM5 chip at a rate of 20 μl/min for 2 min. The peptide was dissociated from the chip for 2.5 minutes with buffer. […] Sensorgrams were generated and analyzed using BiaEval software version 3.1 (Biacore AB, Uppsala, Sweden). […]

soluble human FcRn [14] = target: T1, soluble human FcRn; experiment: SPR, pH 7.4; remark: listed apart in the source
Method: as §1, §3

soluble human FcRn [15] = target: T1, soluble human FcRn; experiment: SPR, pH 7.4; remark: listed apart in the source
Method: as §1, §3

soluble human FcRn [16] = target: T1, soluble human FcRn; experiment: SPR, pH 6; remark: listed apart in the source
Method: as §1, §3

soluble human FcRn [17] = target: T1, soluble human FcRn; experiment: assay not named for Table 26, taken as the IgG competition ELISA
soluble human FcRn [18] = target: T1, soluble human FcRn; experiment: SPR, pH 6; remark: listed apart in the source
Method: as §1, §2

soluble human FcRn [19] = target: T1, soluble human FcRn; experiment: SPR, pH 6; remark: listed apart in the source
Method: as §1, §2

soluble human FcRn [20] = target: T1, soluble human FcRn; experiment: SPR, pH 6; remark: listed apart in the source
Method: as §1, §2

soluble human FcRn [21] = target: T1, soluble human FcRn; experiment: SPR, pH 6; remark: listed apart in the source
Method: as §1, §3

soluble human FcRn [22] = target: T1, soluble human FcRn; experiment: ELISA, competitor human IgG
Method: (§4) The wells were coated with 100 μl/well of 1 μg/ml biotinylated-shFcRn in Buffer A. The plate was sealed and incubated at 37° C. for 2 hours. Afterwards, the plate washed with 200 μl/well of Buffer B (Buffer B: 100 mM MES pH 6, 150 mM NaCl, 0.5% BSA IgG-free (Jackson ImmunoResearch, West Grove, Pa.), 0.05% Tween-20). […] To allow for mixing, the plate was rocked for 2 minutes, sealed and incubated at 37° C. for 2 hours. […] The plate was covered, incubated for 30 minutes at room temperature and washed 4 times with 200 μl/well of ice-cold buffer B. SureBlue TMB substrate solution (100 μl/well, KPL, Gaithersburg, Md.) was added and the plate was allowed to incubate at room temperature until color developed, which took 5 to 10 minutes. Once color developed, 100 μl/well of TMB stop solution (KPL, Gaithersburg, Md.) was added and the absorbance was measured at 450 nm. The data was plotted as absorbance vs. peptide concentration to derive the inhibitory concentration 50% (IC₅₀) values.

soluble human FcRn [23] = target: T1, soluble human FcRn; experiment: SPR, pH 6; remark: listed apart in the source
Method: as §1, §3

soluble human FcRn [24] = target: T1, soluble human FcRn; experiment: ELISA, competitor human IgG; remark: listed apart in the source
Method: as §4

soluble human FcRn [25] = target: T1, soluble human FcRn; experiment: SPR, pH 6; remark: listed apart in the source
Method: as §1, §2

soluble human FcRn [26] = target: T1, soluble human FcRn; experiment: ELISA, competitor human IgG; remark: listed apart in the source
Method: as §4

soluble human FcRn [27] = target: T1, soluble human FcRn; experiment: ELISA, competitor human IgG; remark: listed apart in the source
Method: as §4

soluble human FcRn [28] = target: T1, soluble human FcRn; experiment: ELISA, competitor human IgG; remark: listed apart in the source
Method: as §4

soluble human FcRn [29] = target: T1, soluble human FcRn; experiment: ELISA, competitor human IgG; remark: listed apart in the source
Method: as §4

soluble human FcRn [30] = target: T1, soluble human FcRn; experiment: ELISA, competitor human IgG; remark: listed apart in the source
Method: as §4

soluble human FcRn [31] = target: T1, soluble human FcRn; experiment: ELISA, competitor human IgG; remark: listed apart in the source
Method: as §4

soluble human FcRn [32] = target: T1, soluble human FcRn; experiment: ELISA, competitor human IgG; remark: listed apart in the source
Method: as §4

soluble human FcRn [33] = target: T1, soluble human FcRn; experiment: ELISA, competitor human IgG; remark: listed apart in the source
Method: as §4

soluble human FcRn [34] = target: T1, soluble human FcRn; experiment: SPR, pH 6; remark: listed apart in the source
Method: as §1, §3

soluble human FcRn [35] = target: T1, soluble human FcRn; experiment: ELISA, competitor human IgG; remark: listed apart in the source
Method: as §4

T1 sequence (P55899 24-297 limits assumed, chain 1 of 2): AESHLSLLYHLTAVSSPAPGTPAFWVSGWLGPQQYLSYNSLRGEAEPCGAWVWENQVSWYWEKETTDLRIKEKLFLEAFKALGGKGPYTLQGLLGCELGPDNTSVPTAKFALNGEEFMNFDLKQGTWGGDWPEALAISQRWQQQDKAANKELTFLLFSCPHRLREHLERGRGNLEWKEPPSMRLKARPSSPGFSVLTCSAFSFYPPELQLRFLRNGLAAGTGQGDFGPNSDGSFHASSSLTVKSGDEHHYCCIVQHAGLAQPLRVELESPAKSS
T1 sequence (P61769 21-119 limits assumed, chain 2 of 2): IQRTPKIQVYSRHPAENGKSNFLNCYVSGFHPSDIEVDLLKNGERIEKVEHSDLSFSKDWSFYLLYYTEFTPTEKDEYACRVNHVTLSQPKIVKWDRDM

B1: SEQ ID NO:1 (peptide)
peptide: QRFCTGHFGGLYPCNGP-NH2
modifications: disulfide 4-14 (inferred)
B1 was tested, and the Kd (soluble human FcRn [1]) was 5100 nM, the Kd (soluble human FcRn [2]) was 30000 nM and the Kd (soluble human FcRn [3]) was 30000 nM. It also gave a Kd (soluble human FcRn [4]) of 5100 nM, a Kd (soluble human FcRn [5]) of 30000 nM and a Kd (soluble human FcRn [6]) of 30000 nM. For the same binder, the Kd (soluble human FcRn [7]) was 5100 nM, the Kd (soluble human FcRn [8]) was 5100 nM and the Kd (soluble human FcRn [9]) was 5100 nM. It also gave a Kd (soluble human FcRn [10]) of 5100 nM, a Kd (soluble human FcRn [11]) of 30000 nM and a Kd (soluble human FcRn [12]) of 5100 nM. The Kd (soluble human FcRn [13]) was 30000 nM, the Kd (soluble human FcRn [14]) was 30000 nM and the Kd (soluble human FcRn [15]) was 30000 nM. For the same binder, the Kd (soluble human FcRn [16]) was 5100 nM.

B2: Peptide No. 289 (peptide)
peptide: RFXTGHFGGLYPC
modifications: not fully specified; Pen at 3; Sar at 9; NMeLeu at 10; intrachain disulfide; C-terminal amide; N-termini joined by an Asp linker that carries PEG 30 kDa
notes: structure only as drawing CHEM-US-00138; also called Pegylated Analog of Peptide No. 285
B2 was tested, and the IC50 (soluble human FcRn [17]) was 18 nM.

B3: Peptide No. 32 (peptide)
peptide: QRFXTGHFGGLYPCNGP
modifications: Pen (L-penicillamine) at 4; disulfide; C-terminal amide
Work on B3 yielded a Kd (soluble human FcRn [1]) of 250 nM, a Kd (soluble human FcRn [18]) of 250 nM and a Kd (soluble human FcRn [19]) of 250 nM. It also gave a Kd (soluble human FcRn [20]) of 250 nM, a Kd (soluble human FcRn [21]) of 250 nM and a Kd (soluble human FcRn [4]) of 250 nM. For the same binder, the IC50 (soluble human FcRn [22]) was 2000 nM, the Kd (soluble human FcRn [23]) was 250 nM and the IC50 (soluble human FcRn [24]) was 2000 nM. For the same binder, the Kd (soluble human FcRn [25]) was 250 nM, the IC50 (soluble human FcRn [26]) was 2000 nM and the IC50 (soluble human FcRn [27]) was 2000 nM. For the same binder, the Kd (soluble human FcRn [9]) was 250 nM, the IC50 (soluble human FcRn [28]) was 2000 nM and the Kd (soluble human FcRn [12]) was 250 nM. For the same binder, the IC50 (soluble human FcRn [29]) was 2000 nM, the IC50 (soluble human FcRn [30]) was 2000 nM and the IC50 (soluble human FcRn [31]) was 2000 nM. For the same binder, the IC50 (soluble human FcRn [32]) was 2000 nM, the IC50 (soluble human FcRn [33]) was 2000 nM and the Kd (soluble human FcRn [34]) was 250 nM. The IC50 (soluble human FcRn [35]) was 2000 nM.
